Data from publication PMC4380771 (Methods (San Diego, Calif.), 2014).
Values joined by “and” are separate entries in the source; they are usually repeats but may differ in a detail not shown here. Identical values can stand only once. Like-named read-outs stand apart in the source and are kept apart here. Each block holds one molecule with its values, some of them ahead of it.

Columns and labels:
Tp0655 = target: T1, Tp0655 (Treponema pallidum, UniProt O83661); assay: isothermal titration calorimetry; assay type: binding
T1 sequence (O83661 24-348): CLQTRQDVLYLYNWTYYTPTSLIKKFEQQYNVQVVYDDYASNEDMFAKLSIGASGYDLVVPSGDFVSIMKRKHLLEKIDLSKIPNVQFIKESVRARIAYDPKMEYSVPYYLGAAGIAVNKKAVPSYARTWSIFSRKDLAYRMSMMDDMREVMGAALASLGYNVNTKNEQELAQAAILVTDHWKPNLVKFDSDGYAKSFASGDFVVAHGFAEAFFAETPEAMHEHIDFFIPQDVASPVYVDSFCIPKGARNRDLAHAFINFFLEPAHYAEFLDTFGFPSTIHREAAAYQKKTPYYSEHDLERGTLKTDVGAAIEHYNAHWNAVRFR

hLF = hLF (UniProt P02788); assay: ITC
SynIIIC = SynIIIC (Rattus norvegicus, UniProt O70441); assay: isothermal titration calorimetry; assay type: binding
[1] = target: bovine α-chymotrypsin (bovine); assay: ITC
[2] = target: bovine α-chymotrypsin (bovine); assay: ITC; remark: listed apart in the source
[3] = target: bovine α-chymotrypsin (bovine); assay: ITC; remark: listed apart in the source
HIF2α = HIF2α (Homo sapiens, UniProt Q99814); assay: isothermal titration calorimetry; assay type: binding
Chain of HIF2α (Q99814 239-350): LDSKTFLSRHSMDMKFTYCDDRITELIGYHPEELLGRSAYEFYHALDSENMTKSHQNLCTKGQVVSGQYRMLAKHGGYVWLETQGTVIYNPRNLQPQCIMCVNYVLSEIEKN

Chain of hLF (P02788 20-710): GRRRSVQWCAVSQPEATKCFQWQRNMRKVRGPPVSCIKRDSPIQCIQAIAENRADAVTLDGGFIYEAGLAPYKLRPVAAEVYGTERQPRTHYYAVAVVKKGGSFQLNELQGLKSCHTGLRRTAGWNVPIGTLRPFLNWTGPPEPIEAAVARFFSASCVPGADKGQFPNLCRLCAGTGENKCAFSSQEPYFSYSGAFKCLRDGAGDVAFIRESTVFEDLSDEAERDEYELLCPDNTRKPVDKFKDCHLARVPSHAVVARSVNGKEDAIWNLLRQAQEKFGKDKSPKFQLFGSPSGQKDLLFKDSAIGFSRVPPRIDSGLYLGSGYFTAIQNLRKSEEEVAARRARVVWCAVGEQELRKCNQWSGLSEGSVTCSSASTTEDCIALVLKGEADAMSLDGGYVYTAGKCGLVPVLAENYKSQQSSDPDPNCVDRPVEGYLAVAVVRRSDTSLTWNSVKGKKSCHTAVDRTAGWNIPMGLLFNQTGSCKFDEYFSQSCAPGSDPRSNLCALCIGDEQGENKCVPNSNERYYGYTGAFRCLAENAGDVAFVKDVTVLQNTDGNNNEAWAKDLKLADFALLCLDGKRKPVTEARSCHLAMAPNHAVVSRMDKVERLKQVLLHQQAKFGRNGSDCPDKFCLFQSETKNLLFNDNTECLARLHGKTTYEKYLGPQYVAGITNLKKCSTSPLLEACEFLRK
Chain of SynIIIC (O70441 89-403): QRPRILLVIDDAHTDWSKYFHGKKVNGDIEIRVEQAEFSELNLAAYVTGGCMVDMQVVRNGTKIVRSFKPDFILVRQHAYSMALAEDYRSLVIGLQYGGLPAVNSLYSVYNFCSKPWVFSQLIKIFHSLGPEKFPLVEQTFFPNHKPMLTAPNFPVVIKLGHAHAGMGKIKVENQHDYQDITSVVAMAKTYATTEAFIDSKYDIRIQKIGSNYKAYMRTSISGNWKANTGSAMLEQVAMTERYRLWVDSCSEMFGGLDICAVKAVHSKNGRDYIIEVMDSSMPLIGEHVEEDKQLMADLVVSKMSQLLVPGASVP

Molecule: NCCCCNCCCN [Spermidine]
Kd (Tp0655): 2.37 µM

Molecule: Tp34 (from UniProt P19478 20-204) (natural protein)
Kd (hLF): 11.3 µM and 11 µM and 22.3 µM
log(Ka) (hLF): 4.95
logKa (hLF): 4.96 and 4.65

Kd (SynIIIC): 0.136 µM
Molecule: Nc1ncnc2c1ncn2[C@@H]1O[C@H](COP(=O)(O)OP(=O)(O)OP(=O)(O)O)[C@@H](O)[C@H]1O [ATP]

Molecule: NCCCN [DAP]
Kd (Tp0655): 36.2 µM

dH [1]: 10.5 kcal/mol (2×) and 10.3 kcal/mol
logKa [1]: 6.99 and 7 and 6.9
dH [2]: 10.3 kcal/mol and 10.9 kcal/mol and 9.7 kcal/mol
logKa [2]: 7.27
dH [3]: 10.5 kcal/mol (2×) and 10.4 kcal/mol
log(Ka) [3]: 6.89 and 6.98 and 7
Molecule: Soybean trypsin inhibitor (from UniProt P01070 25-205) (natural protein)

Molecule: NCCCCN [Putrescine]
Kd (Tp0655): 0.117 µM

Molecule: Tp34 (files named H70ATp34hLF...) (from UniProt P19478 20-204) (natural protein)
dH (hLF): 4.9 kcal/mol

Kd (HIF2α): 0.105 µM
Molecule: O=[N+]([O-])c1c(Nc2cc(F)cc(Cl)c2)ccc2nonc12 [HBA, N-(3-Chloro-5-fluorophenyl)-4-nitrobenzo[c][1,2, 5]oxadiazol-5-amine]
